Assay results taken from the RNAGym collection of RNA variant scans (doi:10.1093/nar/gkz1192).

B1: CPEB3 Ribozyme (parent)
chain: UAACAGGGGGCCACAGCAGAAGCGUUCACGUCGCAGCCCCUGUCAGAUUCUGGUGAAUCUGCGAAUUCUGCUGUAUAUCUC

Variants of: B1
Experiment: self-cleavage, relative activity (ratio to wild type); higher = more cleavage; in vitro, sequencing
Procedure, shortened: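 After error-prone PCR and barcoding, CPEB3 ribozyme mutant libraries were transcribed with T7 RNA polymerase at 37°C for 5 hours, then given 15 min with DNase I before an EDTA stop, and they cleaved during both steps. Reverse transcription with template switching preceded Illumina sequencing. Relative activity divides a variant's cleaved/total read fraction by the unmutated ribozyme's. At least 5 reads were required per variant, and three batches were averaged.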
U54A U76C showed a self-cleavage of 1.04.
For U54A U76A, the self-cleavage was 1.13.
G52A U69C showed a self-cleavage of 0.62.
In the case of G52A U69A, the self-cleavage is reported as 0.84.
For G52A U69G, the self-cleavage was 0.98.
G52C U67C showed a self-cleavage of 0.57.
G52C U67A showed a self-cleavage of 0.88.
Work on G52A U80A yielded a self-cleavage of 1.15.
G52A U80C showed a self-cleavage of 1.18.
In the case of G52U G63A, the self-cleavage is reported as 0.99.
For G52U G63U, the self-cleavage was 1.2.
For U54A A65C, the self-cleavage was 0.29.
Work on U54A A65G yielded a self-cleavage of 0.55.
For U54A A65U, the self-cleavage was 0.26.
G53U A65U showed a self-cleavage of 0.25.
Variant G53U A65G has a self-cleavage of 0.61.
For G52U A64U, the self-cleavage was 0.39.
With G52U A64G the self-cleavage was 1.08.
U51C U69G showed a self-cleavage of 0.56.
For U51C U69C, the self-cleavage was 0.6.
For U51C U69A, the self-cleavage was 0.7.
With G53U U72C the self-cleavage was 1.2.
G53U U72A gave a self-cleavage of 0.94.
G53A G61A gave a self-cleavage of 0.73.
With U54A C68U the self-cleavage was 1.03.
For U54A C68A, the self-cleavage was 0.44.
For G52U A65G, the self-cleavage was 0.51.
In the case of G52U A65U, the self-cleavage is reported as 0.28.
With G53U U76C the self-cleavage was 1.22.
Variant U54A C59G has a self-cleavage of 0.35.
Variant U51G U67C has a self-cleavage of 0.17.
Variant U51G U67A has a self-cleavage of 0.43.
Variant U54A A75U has a self-cleavage of 1.21.
U54A A75G gave a self-cleavage of 1.
With U54A A75C the self-cleavage was 1.19.
G52U A56G showed a self-cleavage of 1.14.
With U54A U74G the self-cleavage was 1.3.
For U54A U74C, the self-cleavage was 1.28.
U54A U74A showed a self-cleavage of 1.22.
With G52C A65G the self-cleavage was 0.49.
G52C A65U showed a self-cleavage of 0.32.
Work on U54A U60G yielded a self-cleavage of 0.65.
In the case of U54A U60C, the self-cleavage is reported as 0.67.
U54A U60A showed a self-cleavage of 0.68.
Work on G53C A64G yielded a self-cleavage of 1.05.
With G53C A64U the self-cleavage was 0.42.
In the case of U51C U66A, the self-cleavage is reported as 0.65.
U51C U66C showed a self-cleavage of 0.49.
For G52A U78A, the self-cleavage was 1.19.
Variant G52A U78C has a self-cleavage of 1.13.
In the case of U54A A56U, the self-cleavage is reported as 0.66.
In the case of U54A A56G, the self-cleavage is reported as 0.82.
U51G U54A showed a self-cleavage of 1.28.
U51G U54G showed a self-cleavage of 0.24.
For U51G U54C, the self-cleavage was 1.06.
Variant G52U U67C has a self-cleavage of 0.32.
In the case of G52U U67G, the self-cleavage is reported as 0.33.
For G52U U67A, the self-cleavage was 0.71.
Work on U51C U67C yielded a self-cleavage of 0.4.
For U51C U67A, the self-cleavage was 0.56.
U51C U67G showed a self-cleavage of 0.38.
Variant G53A U67C has a self-cleavage of 0.41.
For G53A U67A, the self-cleavage was 0.55.
For G52A, the self-cleavage was 1.14.
Variant G52C has a self-cleavage of 1.05.
Work on G52U yielded a self-cleavage of 1.13.
Work on U54A U69G yielded a self-cleavage of 0.92.
Variant U54A U69C has a self-cleavage of 0.63.
For U54A U69A, the self-cleavage was 0.86.
Work on U51C G63A yielded a self-cleavage of 0.61.
Work on U51C G63U yielded a self-cleavage of 1.07.
Work on G53U U58C yielded a self-cleavage of 1.08.
Work on G53C G55A yielded a self-cleavage of 0.98.
Variant G52U G61A has a self-cleavage of 1.02.
For G52U G61C, the self-cleavage was 0.22.
Variant G53A U78C has a self-cleavage of 1.06.
U51C G53A gave a self-cleavage of 1.18.
With U51C G53C the self-cleavage was 1.01.
Variant U51C G53U has a self-cleavage of 1.2.
For G52U U76C, the self-cleavage was 1.19.
With G52U U76G the self-cleavage was 1.19.
G52U U76A showed a self-cleavage of 1.24.
Work on G52A U54G yielded a self-cleavage of 1.16.
G52A U54A showed a self-cleavage of 1.16.
In the case of G52A U54C, the self-cleavage is reported as 1.09.
U51G U72C gave a self-cleavage of 0.95.
With U51G U72G the self-cleavage was 0.57.
U51G U72A showed a self-cleavage of 0.91.
G52C A64G showed a self-cleavage of 1.04.
For U51C C81U, the self-cleavage was 1.15.
In the case of G52A A56G, the self-cleavage is reported as 1.19.
G52A A56U gave a self-cleavage of 1.14.
With G52C U80C the self-cleavage was 1.2.
G52C U80A gave a self-cleavage of 1.22.
U51C U72G gave a self-cleavage of 0.88.
U51C U72A showed a self-cleavage of 0.75.
Variant U51C U72C has a self-cleavage of 1.01.
With G52C G61C the self-cleavage was 0.34.
G53A G70A gave a self-cleavage of 0.62.
With G53A G70U the self-cleavage was 0.44.
With U54C A77G the self-cleavage was 1.07.
For U54C A77U, the self-cleavage was 1.07.
In the case of U54C A77C, the self-cleavage is reported as 0.87.
With G53A A65G the self-cleavage was 0.52.
In the case of G53A A65U, the self-cleavage is reported as 0.22.
In the case of G52A U66G, the self-cleavage is reported as 0.76.
With G52A U66A the self-cleavage was 0.66.
G53C U60C gave a self-cleavage of 0.55.
G53C U60A gave a self-cleavage of 0.56.
Variant U51G U69G has a self-cleavage of 0.49.
Work on U51G U69C yielded a self-cleavage of 0.62.
G52A A65G showed a self-cleavage of 0.53.
U51G G63A showed a self-cleavage of 0.98.
U51G G63U showed a self-cleavage of 1.1.
In the case of U54C A57G, the self-cleavage is reported as 0.66.
With U54C A57C the self-cleavage was 0.23.
Work on U54C A57U yielded a self-cleavage of 0.56.
U51G A64U gave a self-cleavage of 0.52.
For U51G A64G, the self-cleavage was 0.85.
In the case of G53A U60C, the self-cleavage is reported as 0.69.
In the case of G53A U60A, the self-cleavage is reported as 0.68.
Variant G53C U67C has a self-cleavage of 0.17.
G53C U67G showed a self-cleavage of 0.54.
In the case of U51C U60C, the self-cleavage is reported as 0.36.
With U51C U60G the self-cleavage was 0.4.
In the case of U51C U60A, the self-cleavage is reported as 0.49.
In the case of G52A U58A, the self-cleavage is reported as 0.5.
G52A U58G gave a self-cleavage of 0.34.
With G52A U58C the self-cleavage was 0.68.
Work on G52A G53A yielded a self-cleavage of 1.13.
G53A A75C showed a self-cleavage of 1.18.
For U54A G70C, the self-cleavage was 0.39.
Work on U54A A77U yielded a self-cleavage of 1.23.
With U54A A77G the self-cleavage was 1.06.
Variant U54A A77C has a self-cleavage of 1.12.
For G53C U69C, the self-cleavage was 0.64.
With G53C U69A the self-cleavage was 0.49.
In the case of U54A A57G, the self-cleavage is reported as 0.91.
U54A A57U gave a self-cleavage of 1.04.
For U54A A57C, the self-cleavage was 0.77.
G53U A64G gave a self-cleavage of 0.97.
Variant G53A A77G has a self-cleavage of 1.18.
G52C U54A gave a self-cleavage of 1.14.
In the case of G52C U54G, the self-cleavage is reported as 1.12.
With U51G C62U the self-cleavage was 0.24.
In the case of G52A A57G, the self-cleavage is reported as 0.99.
With G53U U66G the self-cleavage was 0.66.
U51G C68A showed a self-cleavage of 0.45.
For G53A G73C, the self-cleavage was 1.14.
G52A A64G showed a self-cleavage of 1.03.
For G52A U74C, the self-cleavage was 1.26.
Work on G53A U58A yielded a self-cleavage of 0.48.
With G53A U58G the self-cleavage was 0.24.
Work on G53A U58C yielded a self-cleavage of 0.98.
G53U U67C showed a self-cleavage of 0.21.
Work on G53C C62G yielded a self-cleavage of 0.29.
For U54A U58G, the self-cleavage was 0.42.
With U54A U58A the self-cleavage was 0.45.
U54A U58C showed a self-cleavage of 0.69.
U54C A75G showed a self-cleavage of 0.88.
U54C A75U showed a self-cleavage of 1.2.
With U51C U78C the self-cleavage was 0.99.
Variant U51C U78A has a self-cleavage of 1.02.
Work on G52C C68U yielded a self-cleavage of 1.18.
Variant U51C G55U has a self-cleavage of 0.73.
U51C G55A gave a self-cleavage of 0.75.
U51G U76C showed a self-cleavage of 1.17.
